Test results: patent US20080293922A1 (POSCO, published 2008)

Biological target: T1, neuropilin-1 on MDA-MB-231 tumor cells (UniProt O14786 22-923, limits assumed)
T1 construct: whole, on cells
Assay: Binding of VEGF to MDA-MB-231 cells with or without Aβ peptides (data not shown)

B1: Vascular endothelial growth factor VEGF165 (ligand)
chain: APMAEGGGQNHHEVVKFMDVYQRSYCHPIETLVDIFQEYPDEIEYIFKPSCVPLMRCGGCCNDEGLECVPTEESNITMQIMRIKPHQGQHIGEMSFLQHNKCECRPKKDRARQENPCGPCSERRKHLFVQDPQTCKCSCKNTDSRCKARQLELNERTCRCDKPRR
modifications: 125I label in the radioligand, co-aggregation, dissociation and trapping assays (position not given)
notes: 125I-VEGF was bought from Amersham; also called 125I-VEGF; 125I-VEGF165
- binding result: binds
